# Laboratory results as given in US20230295316A1.
# Target: Nonhuman Primate CD123
# Assay: SPR (Biacore T-100), univalent affinity; antibody captured on the CM4 chip, nonhuman primate CD123 ECD as analyte
# Nonhuman Primate CD123, sequence (soluble extracellular domain with His and Avi tags, as listed by the source limits assumed, form in doubt): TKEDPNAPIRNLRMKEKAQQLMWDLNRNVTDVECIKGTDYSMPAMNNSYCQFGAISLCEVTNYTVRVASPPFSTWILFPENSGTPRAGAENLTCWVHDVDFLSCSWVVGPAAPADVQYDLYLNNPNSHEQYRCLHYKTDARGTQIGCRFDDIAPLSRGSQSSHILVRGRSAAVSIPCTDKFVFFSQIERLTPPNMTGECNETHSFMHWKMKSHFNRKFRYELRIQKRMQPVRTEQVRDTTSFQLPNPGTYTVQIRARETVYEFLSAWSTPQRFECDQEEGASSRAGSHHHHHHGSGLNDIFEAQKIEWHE
binder,measurement,value
"123-10C4 (murine anti-CD123 antibody, IgG2b isotype, Kappa Light Chain) (antibody, V domains shown) VH: QVQLKESGPGLVAPSQNLSITCTVSGFSLTTYDINWIRQPPGKGLEWLGVIWTGGGTNYNSAFMSRLSISKDNSKSQVFLKMNSLQTDDTAMYYCVRGDTYHYALDFWGQGTSVTVSS VL: DIVMSQSPSSLAVSAGEKVTMSCKSSQSLLSSGTRKNYLAWYQQKPGQSPKLLIYWASTRESGVPDRFTGSGSGTDFTLTISSVQAEDLAVYYCKQSYILFTFGSGTKLEIK",Kd,16.1 nM
same,koff,0.0023 s⁻¹
same,kon,143000 M⁻¹ s⁻¹
